Source: doi:10.1101/667956 (bioRxiv, 2019)
Numbering of substitutions follows the chain as printed. Values joined by “and” are separate entries in the source; they are usually repeats but may differ in a detail not shown here. Equal values may be shown once.

Tests used:
DLS = biological target: the molecule itself; test: DLS
SAXS = biological target: the molecule itself; test: SAXS
SEC-MALS [1] = biological target: the molecule itself; test: SEC-MALS
SEC-MALS [2] = biological target: the molecule itself; test: SEC-MALS; remark: listed apart in the source
cross-linking = biological target: the molecule itself; test: cross-linking
[3] = biological target: the molecule itself; test: single-molecule TIRF photobleaching

B1: purified wild-type human Arc (untagged) (natural protein)
chain: MELDHRTSGGLHAYPGPRGGQVAKPNVILQIGKCRAEMLEHVRRTHRHLLAEVSKQVERELKGLHRSVGKLESNLDGYVPTSDSQRWKKSIKACLCRCQETIANLERWVKREMHVWREVFYRLERWADRLESTGGKYPVGSESARHTVSVGVGGPESYCHEADGYDYTVSPYAITPPPAAGELPGQEPAEAQQYQPWVPGEDGQPSPGVDTQIFEDPREFLSHLEEYLRQVGGSEEYWLSQIQNHMNGPAKKWWEFKQGSVKNWVEFKKEFLQYSEGTLSREAIQRELDLPQKQGEPLDQFLWRKRDLYQTLYVDADEEEIIQYVVGTLQPKLKRFLRHPLPKTLEQLIQRGMEVQDDLEQAAEPAGPHLPVEDEAETLTPAPNSESVASDRTQPE
stoichiometry N (DLS): 40 to 55 Arc molecules per capsid

B2: Arc^s113-119A with an N-terminal MBP fusion tag (natural protein)
chain: B1 chain with M113A, H114A, V115A, W116A, R117A, E118A, V119A
stoichiometry N (SAXS): 2

B3: purified Arc^s113-119A (untagged) (natural protein)
chain: B1 chain with M113A, H114A, V115A, W116A, R117A, E118A, V119A
stoichiometry N (SEC-MALS [1]): 2

QETIANLERWVKREMHVWREVFYRLERWADRLES [synthetic peptide of the Arc oligomerization region (residues 99-132)]
stoichiometry N (SEC-MALS [2]): 6

B4: mTurquoise2-fused full-length Arc (1-396), wild type (natural protein)
chain: MELDHMTTGGLHAYPAPRGGPAAKPNVILQIGKCRAEMLEHVRRTHRHLLTEVSKQVERELKGLHRSVGKLENNLDGYVPTGDSQRWKKSIKACLCRCQETIANLERWVKREMHVWREVFYRLERWADRLESMGGKYPVGSEPARHTVSVGVGGPEPYCQEADGYDYTVSPYAITPPPAAGELPEQESVGAQQYQSWVPGEDGQPSPGVDTQIFEDPREFLSHLEEYLRQVGGSEEYWLSQIQNHMNGPAKKWWEFKQGSVKNWVEFKKEFLQYSEGTLSREAIQRELDLPQKQGEPLDQFLWRKRDLYQTLYVDAEEEEIIQYVVGTLQPKFKRFLRHPLPKTLEQLIQRGMEVQDGLEQAAEPSVTPLPTEDETEALTPALTSESVASDRTQPE
stoichiometry N (cross-linking): 2 and 3

B5: recombinantly purified rat Arc^s113-119A with an N-terminal SNAP tag and a C-terminal AviTag (natural protein)
chain: B4 chain with M113A, H114A, V115A, W116A, R117A, E118A, V119A
modifications: AlexaFluor488 SNAP substrate on the SNAP tag; C-terminally biotinylated (AviTag)
binding result [3]: binds

B6: mTq2-fused full-length Arc^s92-98A (natural protein)
chain: B4 chain with K92A, C94A, L95A, C96A, R97A, C98A
stoichiometry N (cross-linking): 2

B7: mTq2-fused full-length Arc^s113-119A (natural protein)
chain: B4 chain with M113A, H114A, V115A, W116A, R117A, E118A, V119A
stoichiometry N (cross-linking): 2
